This data set deals with the molecule itself. The data set is described as follows: SEC-MALS; analytical Superdex200 5/150, room temperature, GF buffer (150 mM NaCl, 20 mM HEPES, pH 7.5); oligomeric state of the disulfide-linked assembly. (In general: In gel filtration, larger molecules generally elute earlier.)

B1: full-length Olfm1 (mouse olfactomedin-1, isoform 1, residues 17-478) (natural protein, UniProt O88998 17-478, looked up)
chain: MITNWMSQTLPSLVGLNTTRLSAASGGTLDRSTGVLPTNPEESWQVYSSAQDSEGRCICTVVAPQQTMCSRDARTKQLRQLLEKVQNMSQSIEVLDRRTQRDLQYVEKMENQMKGLETKFKQVEESHKQHLARQFKAIKAKMDELRPLIPVLEEYKADAKLVLQFKEEVQNLTSVLNELQEEIGAYDYDELQSRVSNLEERLRACMQKLACGKLTGISDPVTVKTSGSRFGSWMTDPLAPEGDNRVWYMDGYHNNRFVREYKSMVDFMNTDNFTSHRLPHPWSGTGQVVYNGSIYFNKFQSHIIIRFDLKTEAILKTRSLDYAGYNNMYHYAWGGHSDIDLMVDENGLWAVYATNQNAGNIVISKLDPVSLQILQTWNTSYPKRSAGEAFIICGTLYVTNGYSGGTKVHYAYQTNASTYEYIDIPFQNKYSHISMLDYNPKDRALYAWNNGHQTLYNVTLFH
modifications: N-linked glycans (eight predicted); interprotein disulfides
notes: the C-terminal VIRSDEL segment is not included; the native signal peptide is replaced by an N-terminal cystatin secretion signal of the vector pUPE107.03; also called noelin; pancortin; source: N-acetylglucosaminyltransferase I-deficient, EBNA1-expressing HEK293 cells, transient expression, secreted; purified (nickel-nitrilotriacetic acid, Superdex200 gel filtration); also unpurified in …
As for B1, the “stoichiometry N” value came out at 4.

A word on the stoichiometry N: it is a count of units in the complex or per binding partner.

The values above are taken from article PMC4463452, “Olfactomedin-1 Has a V-shaped Disulfide-linked Tetrameric Structure*^([image sbox.jpg])” (The Journal of Biological Chemistry, 2015).
